Assay results reported in patent US20250057968A1, “ANTI-DLL3 ANTIBODY AND PHARMACEUTICAL USE THEREOF, AND ANTIBODY-DRUG CONJUGATE CONTAINING ANTI-DLL3 ANTIBODY” (Jiangsu Hengrui Pharmaceuticals Co., Ltd., priority 2021, published 2025).

T1: Human DLL3 full-length protein on cells (human, UniProt Q9NYJ7 27-618)
T1 construct: H1184 and DMS53 express DLL3 themselves; The cell line is named under assay; also called H1184 cells; DLL3/H82
T1 sequence: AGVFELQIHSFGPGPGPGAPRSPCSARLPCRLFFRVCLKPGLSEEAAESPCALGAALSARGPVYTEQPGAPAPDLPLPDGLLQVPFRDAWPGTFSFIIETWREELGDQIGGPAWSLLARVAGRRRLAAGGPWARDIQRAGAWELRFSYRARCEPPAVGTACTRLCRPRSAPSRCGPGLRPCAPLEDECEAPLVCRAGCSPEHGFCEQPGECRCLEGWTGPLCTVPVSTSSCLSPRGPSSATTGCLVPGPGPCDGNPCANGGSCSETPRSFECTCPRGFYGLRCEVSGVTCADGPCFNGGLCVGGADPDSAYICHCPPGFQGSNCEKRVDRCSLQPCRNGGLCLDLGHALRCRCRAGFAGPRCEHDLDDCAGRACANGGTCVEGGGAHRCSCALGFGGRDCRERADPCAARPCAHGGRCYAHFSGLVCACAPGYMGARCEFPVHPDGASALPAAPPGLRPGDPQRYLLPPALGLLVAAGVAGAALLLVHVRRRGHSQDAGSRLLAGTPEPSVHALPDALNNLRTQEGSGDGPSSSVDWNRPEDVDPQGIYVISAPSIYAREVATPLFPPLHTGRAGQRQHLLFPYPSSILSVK

T2: Rat DLL3 full-length protein on CHO-s cells (rat, UniProt O88671 33-589)
T2 construct: also called RatDLL3/CHO-s; ratDLL3/CHO-s
T2 sequence: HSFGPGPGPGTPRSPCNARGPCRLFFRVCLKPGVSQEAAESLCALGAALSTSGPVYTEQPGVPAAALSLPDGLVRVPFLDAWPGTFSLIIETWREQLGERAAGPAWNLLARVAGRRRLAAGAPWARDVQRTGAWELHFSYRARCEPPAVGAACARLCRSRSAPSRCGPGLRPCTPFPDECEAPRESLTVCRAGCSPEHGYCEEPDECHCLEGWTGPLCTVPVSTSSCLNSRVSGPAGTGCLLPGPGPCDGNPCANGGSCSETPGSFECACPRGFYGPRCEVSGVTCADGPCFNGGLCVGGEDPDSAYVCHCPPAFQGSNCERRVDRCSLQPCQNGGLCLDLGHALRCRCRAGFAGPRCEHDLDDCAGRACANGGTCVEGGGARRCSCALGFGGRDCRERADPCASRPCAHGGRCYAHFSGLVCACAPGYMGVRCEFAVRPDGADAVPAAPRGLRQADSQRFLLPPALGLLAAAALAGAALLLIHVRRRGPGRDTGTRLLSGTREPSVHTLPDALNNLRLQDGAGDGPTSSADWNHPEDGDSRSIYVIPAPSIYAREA

B1: Hu6 (antibody, human IgG1, kappa, V domains shown)
VH: EVQLVQSGSELKKPGASVKVSCKASGYTFTDYYMNWVRQAPGQGLEWMGIINPYSGVTIYNHKFKGRFALSVDKSSNTAYLQISSLKAEDTAVYYCARQDSLLDYAMDYWGQGTTVTVSS
VL: DIQMTQSPSSLSASVGDRVTITCHASQGISGNMGWLQQKPGKAPKGLIYHGANLEDGVPSRFSGSGSGADYTLTISSLQPEDFADYYCVQYAQFPYTFGGGTKVEIKR
notes: also called hAb6L4H12
B2: Hu100 (antibody, human IgG1, kappa, V domains shown)
VH: EVQLVESGGGLVKPGGSLRLSCAASGFTFSDSGMHWIRQAPGKGLEWVSYISSGSSTIHYADTVKGRFTISRDNAKNSLYLQMNSLRAEDTAVYYCASPLYYYGRSYNAVAYWGQGTTVTVSS
VL: DIQMTQSPSSLSASVGDRVTITCHASQNINVWLSWYQQKPGKVPKLLIYKASDLHTGVPSRFSGSGSGTDFTLTISSLQPEDVATYYCQQGQSYPLTFGGGTKVEIKR
notes: also called hAb100L1H1

Experiments:
[1] = molecular target: T1, Human DLL3 full-length protein on cells; assay: FACS on H1184 cells
Procedure: (§1) Cells of the DLL3-expressing small cell lung cancer cell lines H1184 (ATCC, Cat. No. CRL-5858), DLL3/H82, cynoDLL3/CHO-s, and RatDLL3/CHO-s were suspended at 1×10^6/mL in FACS buffer (1% BSA+pH 7.4 PBS), and the cell suspensions were added to a 96-well round-bottom plate (Corning, 3795) at 100 μL/well. The plate was centrifuged at 300 g for 5 min, and the supernatant was removed. Different concentrations of test antibodies were added at 100 μL/well. The plate was incubated in the dark in a refrigerator at 4° C. for 1 h. After 3 washes by centrifugation at 300 g, working concentrations of APC anti-human IgG Fc (BioLegend, 410712) or PE F(ab′)2-goat anti-human IgG (invitrogen, H10104) were added. The plate was incubated in the dark in a refrigerator at 4° C. for 40 min. After 3 washes by centrifugation at 300 g, the geometric mean fluorescence intensity was measured on an Invitrogen flow cytometer, and the EC50 values of the antibodies in binding to DLL3-expressing cells were calculated.

[2] = molecular target: T3, Human DLL4 full-length protein on CHO-s cells (human, UniProt Q9NR61 27-685); assay: FACS on human DLL4/CHO-s cells
T3 construct: also called human DLL4/CHO-s
T3 sequence (Q9NR61 27-685 limits assumed): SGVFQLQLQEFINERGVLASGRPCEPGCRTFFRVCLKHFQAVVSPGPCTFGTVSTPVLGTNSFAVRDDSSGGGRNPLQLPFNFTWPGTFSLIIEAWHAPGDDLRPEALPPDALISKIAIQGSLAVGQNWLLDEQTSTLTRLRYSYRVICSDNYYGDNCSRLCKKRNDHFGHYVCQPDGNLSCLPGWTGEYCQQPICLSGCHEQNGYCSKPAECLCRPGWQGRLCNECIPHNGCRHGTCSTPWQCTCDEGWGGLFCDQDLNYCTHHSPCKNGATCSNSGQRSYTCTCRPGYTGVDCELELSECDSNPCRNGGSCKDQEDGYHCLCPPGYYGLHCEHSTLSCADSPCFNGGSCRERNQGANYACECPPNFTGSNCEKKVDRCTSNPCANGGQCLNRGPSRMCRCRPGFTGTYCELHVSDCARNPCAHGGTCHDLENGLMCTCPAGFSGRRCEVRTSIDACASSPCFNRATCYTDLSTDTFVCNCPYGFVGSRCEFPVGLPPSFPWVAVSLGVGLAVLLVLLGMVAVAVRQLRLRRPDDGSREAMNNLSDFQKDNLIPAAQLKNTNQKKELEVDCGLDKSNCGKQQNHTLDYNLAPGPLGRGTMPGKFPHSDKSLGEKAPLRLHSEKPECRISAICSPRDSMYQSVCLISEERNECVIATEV
Procedure: Stably transfected human DLL1/CHO-s and human DLL4/CHO-s cells were suspended at 1×10⁶/mL in FACS buffer (containing 1% BSA and pH 7.4 PBS), and the cell suspensions were added to a 96-well round-bottom plate (Corning, 3795) at 100 µL/well. The plate was centrifuged at 300 g for 5 min, and the supernatant was removed. Test antibodies were added at 100 μL/well, and the plate was incubated in the dark in a refrigerator at 4° C. for 1 h. After 3 washes by centrifugation at 300 g, working concentrations of PE F(ab′)2-goat anti-human IgG Fc secondary antibody (invitrogen, H10104) were added. The plate was incubated in the dark in a refrigerator at 4° C. for 40 min. After 3 washes by centrifugation at 300 g, the geometric mean fluorescence intensity was measured on an Invitrogen flow cytometer.

[3] = molecular target: T2, Rat DLL3 full-length protein on CHO-s …; assay: FACS on RatDLL3/CHO-s cells
Procedure: as §1

[4] = molecular target: T4, hDLL3(ECD)-strep twin, biotinylated (human, UniProt Q9NYJ7 27-492, biotinylated (site not stated)); assay: ELISA, biotinylated antigen on streptavidin plate
T4 construct: also called Biotinylated DLL3 antigen; Biotinylated DLL3-Strep
Procedure: Streptavidin (abcam, ab136200, 1 μg/mL) was plated at 100 μL/well, and the plate was incubated overnight at 4° C. The plate was washed 3 times with 250 μL of PBST solution (PBS containing 0.1% Tween 20) per well. The plate was blocked with 250 μL of 5% milk per well at 37° C. for 2 h. The plate was washed 3 times with 250 μL of PBST solution per well. Biotinylated DLL3 antigen (1 μg/mL) (SEQ ID NO: 9) was added, and the plate was incubated at 37° C. for 1 h. The plate was washed 3 times with 250 μL of PBST solution per well. […] The plate was washed 6 times with 250 μL of PBST solution per well. […] The plate was washed 6 times with 250 μL of PBST solution per well. TMB (KPL, 5120-0077) substrate solution was added at 100 μL/well, and color development was allowed at room temperature for 5-10 min. 1 M H₂SO₄ was added at 100 μL/well to stop the color development, and microplate reader (Molecular Devices, VERSA max) readings at 450 nm were taken.

Binder | EC50 [1] [nM] | Emax [1] | binding result [2] | EC50 [3] [nM] | EC50 [4] [nM] | binding result [3]
B1 | 0.06 | 2070 | no binding | 1.42 | 0.04 | 
B2 | 0.15 | 2110 | no binding |  | 0.05 | no binding
